Measurements taken from patent publication US20230322958A1 (Genentech, published 2023).

Legend:
huNotch1 = target: T1, huNotch1 (human); assay: SPR
T1 construct: The entry named huNotch1 is a tagged EGF-repeat fragment; also called human Notch1
T1 chain: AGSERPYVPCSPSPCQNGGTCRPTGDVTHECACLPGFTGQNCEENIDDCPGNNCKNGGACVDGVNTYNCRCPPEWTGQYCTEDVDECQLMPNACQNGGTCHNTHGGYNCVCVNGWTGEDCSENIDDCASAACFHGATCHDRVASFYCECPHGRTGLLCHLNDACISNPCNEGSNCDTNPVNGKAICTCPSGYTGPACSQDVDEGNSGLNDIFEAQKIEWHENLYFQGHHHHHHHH

huNotch3 = target: T2, huNotch3 (human); assay: SPR
T2 construct: The entry named huNotch3 is a tagged EGF-repeat fragment; also called human Notch3
T2 chain: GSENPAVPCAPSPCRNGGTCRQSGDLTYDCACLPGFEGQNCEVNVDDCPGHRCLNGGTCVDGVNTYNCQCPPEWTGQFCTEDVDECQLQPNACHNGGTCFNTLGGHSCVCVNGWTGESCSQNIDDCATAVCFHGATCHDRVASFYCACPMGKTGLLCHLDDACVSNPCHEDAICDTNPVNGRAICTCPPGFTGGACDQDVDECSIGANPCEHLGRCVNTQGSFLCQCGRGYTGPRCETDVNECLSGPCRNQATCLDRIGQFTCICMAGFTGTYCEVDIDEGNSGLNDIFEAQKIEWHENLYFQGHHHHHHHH

[1] = target: human Notch2 on U-87 MG cells (human, UniProt Q04721 26-2471); assay: cell-based or functional assay
huNotch2-EGF6-10 = target: T3, huNotch2-EGF6-10 (human, UniProt Q04721 219-418); assay: SPR BIAcore T200, antibody captured on protein A, 37 C
T3 construct: also called human Notch2 EGF6-10
T3 sequence: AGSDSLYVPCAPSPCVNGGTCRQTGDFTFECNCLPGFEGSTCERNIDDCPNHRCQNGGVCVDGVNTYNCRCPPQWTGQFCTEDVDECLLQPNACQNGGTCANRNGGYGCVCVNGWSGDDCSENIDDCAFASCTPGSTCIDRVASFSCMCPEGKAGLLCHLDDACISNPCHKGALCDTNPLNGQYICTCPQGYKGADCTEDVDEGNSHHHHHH

Chain of human Notch2 on U-87 MG cells (Q04721 26-2471): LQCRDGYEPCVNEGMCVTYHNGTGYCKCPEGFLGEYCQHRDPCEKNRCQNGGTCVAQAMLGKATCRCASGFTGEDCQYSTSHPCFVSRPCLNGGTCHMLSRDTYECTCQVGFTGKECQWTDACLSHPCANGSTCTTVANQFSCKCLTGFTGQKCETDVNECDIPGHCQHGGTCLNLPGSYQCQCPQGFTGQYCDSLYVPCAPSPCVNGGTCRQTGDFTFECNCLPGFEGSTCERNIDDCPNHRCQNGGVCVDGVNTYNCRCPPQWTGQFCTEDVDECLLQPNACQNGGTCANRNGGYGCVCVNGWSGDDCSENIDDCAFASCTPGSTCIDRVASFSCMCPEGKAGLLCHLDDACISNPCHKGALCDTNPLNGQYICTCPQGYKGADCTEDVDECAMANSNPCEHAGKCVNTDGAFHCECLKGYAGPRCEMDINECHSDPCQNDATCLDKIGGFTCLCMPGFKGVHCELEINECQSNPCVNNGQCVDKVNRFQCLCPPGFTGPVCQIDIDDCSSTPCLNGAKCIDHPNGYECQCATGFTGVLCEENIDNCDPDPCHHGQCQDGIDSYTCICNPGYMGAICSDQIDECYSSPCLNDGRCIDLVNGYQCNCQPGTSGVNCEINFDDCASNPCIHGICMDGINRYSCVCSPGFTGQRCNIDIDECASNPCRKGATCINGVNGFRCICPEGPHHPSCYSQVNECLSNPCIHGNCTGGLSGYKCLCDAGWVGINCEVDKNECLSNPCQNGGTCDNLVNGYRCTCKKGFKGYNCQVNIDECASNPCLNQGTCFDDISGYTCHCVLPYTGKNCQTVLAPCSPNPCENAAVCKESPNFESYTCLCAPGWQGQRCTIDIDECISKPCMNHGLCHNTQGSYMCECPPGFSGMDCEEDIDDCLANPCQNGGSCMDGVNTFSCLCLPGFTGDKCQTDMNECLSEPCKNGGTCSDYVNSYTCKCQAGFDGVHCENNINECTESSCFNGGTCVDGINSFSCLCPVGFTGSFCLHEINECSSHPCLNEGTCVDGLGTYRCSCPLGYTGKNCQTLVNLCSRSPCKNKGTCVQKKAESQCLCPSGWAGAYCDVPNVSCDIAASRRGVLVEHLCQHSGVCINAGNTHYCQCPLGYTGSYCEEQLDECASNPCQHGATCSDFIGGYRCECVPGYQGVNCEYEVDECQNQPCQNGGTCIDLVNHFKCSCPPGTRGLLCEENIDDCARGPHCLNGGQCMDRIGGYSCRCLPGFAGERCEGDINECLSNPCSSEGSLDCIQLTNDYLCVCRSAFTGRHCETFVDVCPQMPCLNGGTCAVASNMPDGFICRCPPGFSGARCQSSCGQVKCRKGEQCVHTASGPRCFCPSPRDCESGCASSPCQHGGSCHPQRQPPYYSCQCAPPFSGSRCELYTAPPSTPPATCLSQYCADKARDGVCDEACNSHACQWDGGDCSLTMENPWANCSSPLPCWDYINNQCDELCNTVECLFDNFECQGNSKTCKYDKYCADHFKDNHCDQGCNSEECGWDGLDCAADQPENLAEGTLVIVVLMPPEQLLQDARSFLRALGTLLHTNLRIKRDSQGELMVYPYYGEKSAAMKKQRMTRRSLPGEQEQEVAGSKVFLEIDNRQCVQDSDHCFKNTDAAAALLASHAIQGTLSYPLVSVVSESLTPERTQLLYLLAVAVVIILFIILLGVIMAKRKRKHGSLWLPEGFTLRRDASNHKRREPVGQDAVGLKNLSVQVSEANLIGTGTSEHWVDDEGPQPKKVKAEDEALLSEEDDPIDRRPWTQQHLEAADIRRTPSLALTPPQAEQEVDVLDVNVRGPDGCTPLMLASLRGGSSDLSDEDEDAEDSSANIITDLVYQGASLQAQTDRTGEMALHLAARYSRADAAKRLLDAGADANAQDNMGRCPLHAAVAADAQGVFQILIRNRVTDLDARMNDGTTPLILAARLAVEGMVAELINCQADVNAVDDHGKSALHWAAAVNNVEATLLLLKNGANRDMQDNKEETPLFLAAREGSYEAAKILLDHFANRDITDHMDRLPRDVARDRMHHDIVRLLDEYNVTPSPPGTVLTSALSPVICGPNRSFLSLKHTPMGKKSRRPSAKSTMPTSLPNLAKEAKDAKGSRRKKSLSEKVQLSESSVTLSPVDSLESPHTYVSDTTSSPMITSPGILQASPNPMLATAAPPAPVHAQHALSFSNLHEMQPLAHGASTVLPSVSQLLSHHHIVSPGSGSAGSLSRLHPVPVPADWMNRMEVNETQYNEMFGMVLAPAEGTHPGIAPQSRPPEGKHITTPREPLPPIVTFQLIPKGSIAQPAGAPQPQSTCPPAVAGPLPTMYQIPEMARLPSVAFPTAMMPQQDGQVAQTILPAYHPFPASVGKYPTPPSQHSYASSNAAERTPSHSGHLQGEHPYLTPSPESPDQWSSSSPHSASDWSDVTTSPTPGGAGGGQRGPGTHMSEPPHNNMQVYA

binding result (huNotch1): no binding | binding result (huNotch3): no binding | Jagged1 IC50 [1]: 1.8 nM | Kd (huNotch2-EGF6-10): 3.08 nM | koff (huNotch2-EGF6-10): 0.000817 s⁻¹ | kon (huNotch2-EGF6-10): 265000 M⁻¹ s⁻¹
B1: hu1B2.v103 (antibody, V domains shown)
VH: EVQLVESGGGLVQPGGSLKLSCAVSGFTFSDFYMEWVRQASGKGLEWVAAQRNKANDFSIVYSASVKDRFTISRDDSKSTLYLQMNSLKTEDTAVYYCSRDGGKWGLDAWGQGTLVTVSS
VL: DIQMTQSPSSVSASVGDRVTITCQTSEDIYSGLAWYQQKPGKSPKLLIYGASRLQDGVPSRFSGSGSGTDYTLTISSLQPEDFATYYCQQGFKYPLTFGGGTKVEIK
notes: Human IgG1 backbone
